From patent US20150037348A1 (AbbVie / Abbott, published 2015)
Numbering of substitutions follows the chain as printed. In names and notes the source's numbering stands. Several values for one entry are separate records, joined by “and”; a condition that tells them apart may be missing. Equal values may be shown once. Read-outs that look alike come from different tables or passages of the source. Each block holds one binder with its values, some of them ahead of it.

Columns and labels:
[1] = target: T1, recombinant human IL-12 (rhIL-12) (human, UniProt P29459 23-219; P29460 23-328); experiment: cell-based or functional assay
T1 sequence (looked up) 1: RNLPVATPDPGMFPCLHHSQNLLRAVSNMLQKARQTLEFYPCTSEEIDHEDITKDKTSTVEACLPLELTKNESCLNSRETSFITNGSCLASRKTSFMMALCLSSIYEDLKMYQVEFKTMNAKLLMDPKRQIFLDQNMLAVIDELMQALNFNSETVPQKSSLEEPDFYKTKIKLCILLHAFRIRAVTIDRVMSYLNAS
T1 sequence (looked up) 2: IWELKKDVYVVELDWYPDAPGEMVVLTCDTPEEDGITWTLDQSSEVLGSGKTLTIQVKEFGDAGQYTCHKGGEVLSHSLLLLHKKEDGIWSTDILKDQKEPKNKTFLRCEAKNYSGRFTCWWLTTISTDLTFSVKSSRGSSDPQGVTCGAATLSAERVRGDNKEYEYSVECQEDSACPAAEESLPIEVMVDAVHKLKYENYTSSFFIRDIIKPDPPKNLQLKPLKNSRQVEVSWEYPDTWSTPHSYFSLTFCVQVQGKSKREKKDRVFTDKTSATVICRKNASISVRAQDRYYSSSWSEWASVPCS

[2] = target: T1, recombinant human IL-12 (rhIL-12); experiment: BIAcore SPR
[3] = target: T1, recombinant human IL-12 (rhIL-12); experiment: cell-based or functional assay; remark: listed apart in the source
[4] = target: T1, recombinant human IL-12 (rhIL-12); experiment: cell-based or functional assay; remark: listed apart in the source
[5] = target: T1, recombinant human IL-12 (rhIL-12); experiment: receptor binding assay, 125I-hIL-12 on PHA blasts
Experimental: PHA blast cells isolated as described above, were washed once and resuspended in binding buffer to a cell density of 2×10⁷ cells/ml. […] The cell pellet was examined for cell bound radioactivity using a gamma counter. […] Incubations were carried out in duplicate.

[6] = target: T2, human interleukin 12 (p70 heterodimer of p35 and p40) (human, UniProt P29459 23-219; P29460 23-328); experiment: BIAcore
T2 construct: Recombinant human IL-12; p35 and p40 linked by a disulfide bridge; also called hIL-12; IL-12
T2 sequence (looked up) 1: T1 sequence (looked up) 1
T2 sequence (looked up) 2: T1 sequence (looked up) 2

[7] = target: T2, human interleukin 12 (p70 heterodimer …); experiment: BIAcore; remark: listed apart in the source
[8] = target: T2, human interleukin 12 (p70 heterodimer …); experiment: BIAcore; remark: listed apart in the source
[9] = target: T2, human interleukin 12 (p70 heterodimer …); experiment: BIAcore; remark: listed apart in the source
[10] = target: T2, human interleukin 12 (p70 heterodimer …); experiment: BIAcore; remark: listed apart in the source
[11] = target: T2, human interleukin 12 (p70 heterodimer …); experiment: BIAcore; remark: listed apart in the source
[12] = target: T2, human interleukin 12 (p70 heterodimer …); experiment: BIAcore; remark: listed apart in the source

- PHA assay IC50 (M) p70:p40 1:0 [1]: 9e-10 M
- PHA assay IC50 (M) p70:p40 1:20 [1]: 1e-09 M
- PHA assay IC50 (M) p70:p40 1:50 [1]: 1e-09 M
B1: 149-6 (scFv)
chain: QVQLVQSGGGVVQPGRSLRLSCAASGFTFSSYGMHWVRQAPGKGLEWVAFIRYDGSNKYYADSVKGRFTISRDNSKNTLYLQMKSLRAEDTAVYYCTTHGSHDNWGQGTMVTVSSSYVLTQPPSVSGTPGQRVTISCSGGRSNIVSNTVKWYQQLPGTAPKLLIYGNDQRPSGVPDRFSGSKSGTSASLAITGVQAEDEADYYCQSYDRGFTGSRVFGTGTKVTVLG

- koff [2]: 0.00015 s⁻¹
- PHA assay IC50 [3]: 0.13 nM
- PHA assay IC50 (M) p70:p40 1:0 [1]: 1.8e-10 M
- PHA assay IC50 (M) p70:p40 1:50 [1]: 1.8e-10 M
- IC50 (M), bioassay, Human IL-12 Purified [4]: 1.7e-10 M
- IC50 [5]: 0.016 nM
B2: Y61 IgG (antibody, V domains shown)
VH: QVQLVQSGGGVVQPGRSLRLSCAASGFTFSSYGMHWVRQAPGKGLEWVAFIRYDGSNKYYADSVKGRFTISRDNSKNTLYLQMKSLRAEDTAVYYCKTHGSHDNWGQGTMVTVSS
VL: SYVLTQPPSVSGTPGQRVTISCSGGRSWIGSNTVKWYQQLPGTAPKLLIYGNDQRPSGVPDRFSGSKSGTSASLAITGVQAEDEADYYCQSYDRGTHPALLFGTGTKVTVLG
notes: whole IgG1; also called Y61-IgG1

- koff [6]: 0.000186 s⁻¹
B3: Y61-L30C (scFv, V domains shown)
VH: B2 VH
VL: SYVLTQPPSVSGTPGQRVTISCSGGRSNIGCNTVKWYQQLPGTAPKLLIYGNDQRPSGVPDRFSGSKSGTSASLAITGVQAEDEADYYCQSYDRGTHPALLFGTGTKVTVL
notes: copies: 1 + 1

- koff [6]: 0.000483 s⁻¹
B4: Y61-L30Y (scFv, V domains shown)
VH: B2 VH
VL: B3 VL with C31Y
notes: copies: 1 + 1

- koff [7]: 0.000249 s⁻¹ and 0.000168 s⁻¹ and 0.000337 s⁻¹ and 0.000178 s⁻¹
- koff [8]: 0.000204 s⁻¹ and 0.000206 s⁻¹ and 0.000151 s⁻¹ and 0.000178 s⁻¹
- koff [9]: 0.000385 s⁻¹ and 0.00031 s⁻¹
- koff [10]: 0.000403 s⁻¹
- koff [6]: 0.000211 s⁻¹ and 0.000229 s⁻¹ and 0.000241 s⁻¹
- koff [11]: 0.000215 s⁻¹ and 0.000297 s⁻¹
- koff [12]: 0.000259 s⁻¹ and 0.000199 s⁻¹ and 0.000256 s⁻¹
B5: Y61 scFv (scFv, V domains shown)
VH: B2 VH
VL: B2 VL
notes: Single chain Fv; also called clone Y61

- koff [6]: 0.000346 s⁻¹
B6: Y61-L30K (scFv, V domains shown)
VH: B2 VH
VL: B3 VL with C31K
notes: copies: 1 + 1

- koff [6]: 0.000166 s⁻¹
B7: Y61-L30N (scFv, V domains shown)
VH: B2 VH
VL: B3 VL with C31N
notes: copies: 1 + 1

- koff [6]: 0.00022 s⁻¹
B8: Y61-L30D (scFv, V domains shown)
VH: B2 VH
VL: B3 VL with C31D
notes: copies: 1 + 1

- koff [6]: 0.000182 s⁻¹
B9: Y61-L30R (scFv, V domains shown)
VH: B2 VH
VL: B3 VL with C31R
notes: copies: 1 + 1

- koff [12]: 0.000236 s⁻¹
- PHA assay IC50 [3]: 0.06 nM
B10: Y61-L94F (scFv, V domains shown)
VH: B2 VH
VL: B3 VL with C31S, G95F

- koff [2]: 0.000304 s⁻¹
- PHA assay IC50 [3]: 0.38 nM
- PHA assay IC50 (M) p70:p40 1:0 [1]: 2.5e-10 M
- PHA assay IC50 (M) p70:p40 1:50 [1]: 2.2e-10 M
- IC50 [5]: 0.029 nM
B11: AO3 IgG1 (antibody, V domains shown)
VH: B2 VH
VL: B2 VL with W28N, A99L, L100T, L101M
notes: IgG1

- koff [2]: 0.00025 s⁻¹
- PHA assay IC50 [3]: 0.175 nM
- IC50 [5]: 0.035 nM
B12: AO3 IgG germline (antibody, V domains shown)
VH: B2 VH with Q6E, K84N
VL: B3 VL with S1Q, Y2S, T13A, G25S, C31S, V79L, A99L, L100T, L101M
notes: IgG with germline frameworks as named; only the CDR3s are tied to it

- koff [12]: 0.000131 s⁻¹
- PHA assay IC50 [3]: 0.02 nM
- IC50 [5]: 0.02 nM
B13: Y61-L94Y (scFv, V domains shown)
VH: B2 VH
VL: B3 VL with S1Q, Y2S, T13A, G25S, C31S, V79L, G95Y

- koff [2]: 0.00015 s⁻¹
- IFN gamma IC50 [3]: 0.16 nM
- PHA assay IC50 [3]: 0.13 nM
- IC50 [5]: 0.016 nM
B14: Y61 IgG germline (antibody, V domains shown)
VH: B2 VH with Q6E, K84N
VL: B3 VL with S1Q, Y2S, T13A, G25S, C31S, V79L

- koff [12]: 0.000137 s⁻¹
- PHA assay IC50 [3]: 0.08 nM
B15: Y61-L94N (scFv, V domains shown)
VH: B2 VH
VL: B3 VL with C31S, G95N
